# B1: navicixizumab (antibody, chains of the INN, looked up, V domains shown)
# VH: QVQLVQSGAEVKKPGASVKISCKASGYSFTAYYIHWVKQAPGQGLEWIGYISNYNRATNYNQKFKGRVTFTTDTSTSTAYMELRSLRSDDTAVYYCARDYDYDVGMDYWGQGTLVTVSS
# VL: DIVMTQSPDSLAVSLGERATISCRASESVDNYGISFMKWFQQKPGQPPKLLIYAASNQGSGVPDRFSGSGSGTDFTLTISSLQAEDVAVYYCQQSKEVPWTFGGGTKVEIK
# VH2: QVQLVQSGAEVKKPGASVKVSCKASGYTFTNYWMHWVRQAPGQGLEWMGDINPSNGRTSYKEKFKRRVTLSVDKSSSTAYMELSSLRSEDTAVYFCTIHYDDKYYPLMDYWGQGTLVTVSS
# VL2: DIVMTQSPDSLAVSLGERATISCRASESVDNYGISFMKWFQQKPGQPPKLLIYAASNQGSGVPDRFSGSGSGTDFTLTISSLQAEDVAVYYCQQSKEVPWTFGGGTKVEIK
# notes: anti-VEGF/anti-DLL4 bispecific antibody
# B2: navicixizumab and chemotherapy: anti-VEGF/anti-DLL4 bispecific antibody navicixizumab with chemotherapy (such as paclitaxel, FOLFOX, FOLFIRI, irinotecan) (antibody, chains of the INN, looked up, V domains shown)
# VH: QVQLVQSGAEVKKPGASVKISCKASGYSFTAYYIHWVKQAPGQGLEWIGYISNYNRATNYNQKFKGRVTFTTDTSTSTAYMELRSLRSDDTAVYYCARDYDYDVGMDYWGQGTLVTVSS
# VL: DIVMTQSPDSLAVSLGERATISCRASESVDNYGISFMKWFQQKPGQPPKLLIYAASNQGSGVPDRFSGSGSGTDFTLTISSLQAEDVAVYYCQQSKEVPWTFGGGTKVEIK
# VH2: QVQLVQSGAEVKKPGASVKVSCKASGYTFTNYWMHWVRQAPGQGLEWMGDINPSNGRTSYKEKFKRRVTLSVDKSSSTAYMELSSLRSEDTAVYFCTIHYDDKYYPLMDYWGQGTLVTVSS
# VL2: DIVMTQSPDSLAVSLGERATISCRASESVDNYGISFMKWFQQKPGQPPKLLIYAASNQGSGVPDRFSGSGSGTDFTLTISSLQAEDVAVYYCQQSKEVPWTFGGGTKVEIK
# modifications: plus chemotherapy
# B3: bavituximab and an anti-PD-1 checkpoint inhibitor: phosphotidylserine-targeting antibody bavituximab in combination with anti-PD-1 (antibody, chains of the INN, looked up, V domains shown)
# VH: EVQLQQSGPELEKPGASVKLSCKASGYSFTGYNMNWVKQSHGKSLEWIGHIDPYYGDTSYNQKFRGKATLTVDKSSSTAYMQLKSLTSEDSAVYYCVKGGYYGHWYFDVWGAGTTVTVSS
# VL: DIQMTQSPSSLSASLGERVSLTCRASQDIGSSLNWLQQGPDGTIKRLIYATSSLDSGVPKRFSGSRSGSDYSLTISSLESEDFVDYYCLQYVSSPPTFGAGTKLELK
# modifications: plus anti-PD-1 checkpoint inhibitor
# B4: Bavituximab plus radiation (antibody, chains of the INN, looked up, V domains shown)
# VH: EVQLQQSGPELEKPGASVKLSCKASGYSFTGYNMNWVKQSHGKSLEWIGHIDPYYGDTSYNQKFRGKATLTVDKSSSTAYMQLKSLTSEDSAVYYCVKGGYYGHWYFDVWGAGTTVTVSS
# VL: DIQMTQSPSSLSASLGERVSLTCRASQDIGSSLNWLQQGPDGTIKRLIYATSSLDSGVPKRFSGSRSGSDYSLTISSLESEDFVDYYCLQYVSSPPTFGAGTKLELK
# modifications: plus radiation
# Experiments:
# [1] = system: advanced colorectal cancers metastatic to liver (mCRC); conditions: 3L+ mCRC metastatic to liver; cited from earlier work
# [2] = system: MDSC functions; conditions: pre-clinical models; cited from earlier work
# [3] = system: metastatic colorectal cancer patients; assay: Retrospective analysis of anti-angiogenic therapy (bevacizumab) in metastatic colorectal cancer by TME phenotype; format: in vivo, human; conditions: A and IS patients
# Protocol: The analysis includes 60 colorectal cancer tumor samples.
# To test if TME phenotypes correlate with clinical outcomes when patients are treated with an angiogenesis inhibitor, tumor stroma RNA gene signatures are analyzed from archival tissues collected from 60 colorectal cancer patients (30 left-sided, 30 right-sided) using an ANN classifier such as the TME Panel-1 classifier. The correlation between each TME phenotype is tested against clinical outcome data. In A and IS patients, the use of bevacizumab confers gains in comparison to patients classified to IA and ID TME phenotypes: in A and IS patients median PFS and OS shifts to 15 months and 39 months, respectively. Progression-free survival and OS data in IA and ID patients are consistent with historical values. Overall, the A and IS TME phenotypes correlate specifically with improved clinical outcomes with angiogenesis inhibitors and has a predictive effect with respect to PFS.
# [4] = system: stage III or IV of ovarian cancer; conditions: ovarian cancer stage III or IV after initial surgery; bevacizumab added to carboplatin and paclitaxel versus without; cited from earlier work
# [5] = system: mCRC; conditions: phase II single arm study; cited from earlier work
# [6] = system: advanced solid tumors in colorectal, triple-negative breast cancer, gastric, and ovarian cancers; assay: Phase 2 open-label basket study of navicixizumab monotherapy or with paclitaxel or irinotecan, retrospective analysis by TME phenotype; format: in vivo, human; conditions: combined A and IS groups
# Protocol: A retrospective analysis of a signal-finding Phase 2 clinical trial is conducted. Patient samples from thirty patients in a phase 2, multicenter, open-label basket study of navicixizumab monotherapy or in combination with the chemotherapeutics paclitaxel or irinotecan in patients with advanced solid tumors in colorectal, triple-negative breast cancer, gastric, and ovarian cancers. Patients in the combined A and IS groups that received navicixizumab monotherapy have an ORR greater than 40%. Patients in the combined A and IS groups that receive navicixizumab and chemotherapy have an ORR greater than 50%.
# [7] = system: colorectal cancer patients; assay: Clinical trial of navicixizumab and chemotherapy in colorectal cancer, outcome by TME phenotype; format: in vivo, human
# Protocol: A clinical trial is run to show benefit of anti-angiogenesis therapy in CRC by identifying patients based on their stromal phenotypes. RNA gene signatures are analyzed from biopsy samples prior to treatment with navicixizumab and chemotherapy (such as paclitaxel, FOLFOX, FOLFIRI, etc.). The stromal phenotypes are correlated with ORR, PFS, and OS. The analysis includes 40 colorectal cancer patients with treated with navicizumab and chemotherapy in the first-line setting.
# [8] = system: colorectal cancer in dMMR or MSI-H status patients; assay: Clinical trial of bavituximab and an anti-PD-1 checkpoint inhibitor in dMMR or MSI-H colorectal cancer, outcome by TME phenotype; format: in vivo, human
# Protocol: A clinical trial is run to determine whether colorectal cancer TME phenotypes correlate to clinical responses when patients with dMMR or MSI-H status are treated with a combination of a checkpoint inhibitor and bavituximab. The analysis includes 40 colorectal cancer tumor samples.
# An anti-PD-1 checkpoint inhibitor is known to increase PFS and OS in dMMR or MSI-H status patients with advanced colorectal cancer (CRC), compared to chemotherapy. CRC patients with dMMR or MSI-H have the option of anti-PD-(L)1 after advancement on appropriate front-line therapy. Patients are classified according to an ANN method such as the TME Panel-1 classifier. […] RNA gene signatures are analyzed from biopsy samples prior to treatment with anti-PD-1. The TME phenotypes are correlated with ORR and with 20-week PFS. […] 40 patients are enrolled, 10 in each of the 4 TME phenotypes. The correlation between each tumor TME phenotype is tested against clinical outcome data. In IA or IS patients the use of bavituximab and anti-PD-(L)1 confers gains in comparison to patients classified to angiogenic (A), and immune desert (ID) TME phenotypes as shown in TABLE 18.
# [9] = system: melanoma; assay: Phase 2 trial of adjuvant bavituximab and radiation after neoadjuvant immune checkpoint inhibitor, outcome by TME phenotype; format: in vivo, human
# Protocol: A phase 2 clinical trial is run to determine whether melanoma tumor microenvironment phenotypes correlate to clinical responses when patients are treated with adjuvant Bavituximab and radiation following neoadjuvant immune checkpoint inhibitor treatment and surgical resection of stage 2b lymph nodes. The analysis includes samples from 20 patients. RNA gene signatures are analyzed from tumor samples acquired as surgical resections and TME phenotypes are determined. Patients are followed for ORR.
# Melanoma patients receive a course of neoadjuvant immune checkpoint inhibitor (anti-PD-(L)1—i.e., an inhibitor to PD-1 or PD-L1) therapy and their stage 2b lymph nodes are resected. Radiation and Bavituximab are given as adjuvant therapy. The TME phenotypes from resected tumor samples are correlated to ORR. […] (20) patients are enrolled, with equal representation across the 4 stromal phenotypes (5 in each phenotype). The correlation between each TME phenotype is tested against clinical outcome data. In biomarker positive patients, represented by immune active (IA) and immune suppressed (IS) phenotypes, the use of the regimen of Bavituximab/radiation confers benefit in comparison to patients classified as biomarker negative, comprised of angiogenic (A) and immune desert (ID) TME phenotype classes, as shown in the TABLE 33.
molecule,measurement,setting,value
CNC(=O)c1cc(Oc2ccc(NC(=O)Nc3ccc(Cl)c(C(F)(F)F)c3)c(F)c2)ccn1 [regorafenib],median OS (mOS),[1],~7 months
same,median PFS (mPFS),[1],~2 months
CCCc1nn(C)c2c(=O)[nH]c(-c3cc(S(=O)(=O)N4CCN(C)CC4)ccc3OCC)nc12 [sildenafil],effect on MDSC functions,[2],significantly inhibited the MDSC functions
bevacizumab,median OS,[3],39 months
same,median PFS,[3],15 months
same,Progression-free survival,[4],18 months
carboplatin and paclitaxel,Progression-free survival,[4],13 months
ramucirumab plus FOLFIRI: anti-angiogenic ramucirumab plus the chemotherapeutic FOLFIRI,ORR,[5],58%
same,OS,[5],20.4 mos
same,PFS,[5],11.5 months
trifluoridine/tipiracil,median OS (mOS),[1],~7 months
same,median PFS (mPFS),[1],~2 months
B1,ORR,[6],greater than 40%
B2,ORR (%),[7]; A (n = 10),90%
same,OS (months),[7]; A (n = 10),26 months
same,PFS (months),[7]; A (n = 10),15 months
same,ORR (%),[7]; IA (n = 10),30%
same,OS (months),[7]; IA (n = 10),15 months
same,PFS (months),[7]; IA (n = 10),10 months
same,ORR (%),[7]; ID (n = 10),45%
same,OS (months),[7]; ID (n = 10),20 months
same,PFS (months),[7]; ID (n = 10),13 months
same,ORR (%),[7]; IS (n = 10),80%
same,OS (months),[7]; IS (n = 10),25 months
same,PFS (months),[7]; IS (n = 10),16 months
same,ORR,[6],greater than 50%
B3,ORR (%),[8]; A (n = 10),0%
same,PFS % at 20 weeks,[8]; A (n = 10),0%
same,ORR (%),[8]; IA (n = 10),90%
same,PFS % at 20 weeks,[8]; IA (n = 10),100%
same,ORR (%),[8]; ID (n = 10),0%
same,PFS % at 20 weeks,[8]; ID (n = 10),0%
same,ORR (%),[8]; IS (n = 10),90%
same,PFS % at 20 weeks,[8]; IS (n = 10),100%
B4,Overall response rate (ORR),[9]; Biomarker Negative (n = 10),60%
same,Overall response rate (ORR),[9]; Biomarker Positive (n = 10),90%
same,Overall response rate (ORR),[9]; TME phenotype A (n = 5),60%
same,Overall response rate (ORR),[9]; TME phenotype IA (n = 5),80%
same,Overall response rate (ORR),[9]; TME phenotype ID (n = 5),60%
same,Overall response rate (ORR),[9]; TME phenotype IS (n = 5),100%

# — patent US20240344138A1, “TARGETED THERAPIES IN CANCER” (Feng Biosciences, Inc, priority 2021, published 2024)
